# Test system: K4 kissing-loop RNA reporter
# Test: apparent KD of K4 kissing-loop reporter; higher = weaker reporter binding
# Conditions: Eterna round: R107; input ligand: arginine 13.2 mM
# Description: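 RNA-MaP round R107: designed RNA switches with theophylline, tryptophan, arginine or FMN aptamers are transcribed on-chip within common flanks. They are titrated with a labelled K4 kissing-loop RNA reporter in RNA-MaP buffer (100 mM Tris pH 7.5, 80 mM KCl, 4 mM MgCl2), without ligand or with the indicated ligand. Median apparent KD per design.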
# 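Further: bound reporter read as fluorescence of individual clusters on recovered sequencing chips by microscopy, with normalized cluster intensities fitted with a binding model.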
row,Sequence,apparent KD of K4 kissing-loop reporter [nM]
1,UAAUCCUAGUGAUAAUAAUCAAGUGGUGGACGAGGACCGGUACGGCCGCCACUCGAAAAUGCAGUGAUGUUGUAAUCCGGAUAAU [Exclusion - Tryptophan A (Freestyle 4)],701
2,ACGUCAUCAAAAGGAUAUGCAUCGAAGUGAUGUUUCGUCAUAUCAGUCUGAUUGCAGCAAUUAGGAGCAGAAGGUUUAGUCCGGU [theeternabot_exclusion_KL_FMN_B_11],80.7
3,ACCGCAUUGGGAUGAUCCCAAUGCGCUGGUCGAGGACCGGUACGGCCGCCACUCGUCCAGUGAUGUUGGACUAGGGCAACUGAAG [Bileesma],270
4,UGAUUUAACUGAAGGAGCGGCAAUUGAUAAGUAAAUAUAGUGAUGUUAUAUAAGAUAGAGAGCCAGGUAGGUCGCAGAGGUAGGA [ExArgB.K],139
5,AAGUGAUGUUGUAGUGAUGUUGUGAUGUUGCAGGAUAUAUAGUGAUGUAGAAGGGUAUGUACUUAUUUUUUUUUUGAGUUUUGUU [xgghzrmullin],32.3
6,AUAUUAAGCGGAAGGAGCGGCUGAACCAGUGAUGUUGGUUAAUCCAAGUGAUGUUGGAAAAGCCAGGUAGGUCGCCGCUAUAUAU [Same State Arg B GF 1],424
7,AUUAAUAUCACGGCCGCCACUGAAUAUUGUUUUUAUAUUUAGAAUAAUUGCCAGUGAUGUUGGAUCAGGACCGGGUGAUUUUAUA [JR_SSTryptoB_Sub008],489
8,AAAAUAAUCCAGUGAUGUUGGUAUCCAGAUACCAGCCACGAAAGUGGCCCUUGGCAGCUGUAGGACGUACAAAUAAGUACGUCCA [#OpenEnded 7 #StaticStem #K4Early],175
9,UGAUAGGACAGAAGGAGCGGCAGUGAUGUUGCCAAAAGGAUAAGGUGUCAAAAGACACCCUGCCAGGUAGGUCGCUGUCCUAUCU,366
10,CGAGUGAUGUUCGUUCGUUUAUUUGGGUGACAGGAUAUGCGGAAACGCAGAAGGGUCACCUUCGGGUUACCCGAAUUAACGUUAU [#09 K4 FMN A Exclusion],520
11,CUCGAGUGAUGUUCGAUUAUGUAUACAGAUACCAGUGAAUUUUAACACCCUUGGCAGCUGGUAGAAUCAUUUUAAUUUUAACUAG [JR_SSTheophyA_Sub021],256
12,GGUAGCAUGGCGGCCGCCACUUCAAUUGGAGUGAUGUUCCAAGGCAUCGCGAAAGCGAUGCCAGGAAGGACCGGGCCAUGCUACC,224
13,AAAAUAAAUCAGUGAUGUUGGUGUCCAGAUACCAGCGACGAAAGUCGCCCUUGGCAGCUGUGGACGUACAAAAUAAGUACGUCCU [MatMod 22 - Jieux - Same State - Theophylline A],316
14,GCGGGCGGCUGAAGGAGCGGGCGGGCCCGAGUGAUGUUCGGGUGGGCCGUGAGGCCCGGAGCCCAGGUAGGUCGCGGUUCCGUCC [#2 Same State - Arginine B Attempt #19 (HarryS)],113
15,GGAUAGGAUAGAGGAUAUGGGUUAGGCAAGAAUAACUUGUCUUGUAAAUCCAUGAGGAGUGAUGUUCCAGAAGGCUGUCCUAUCG [MatMod 5 - Jieux - Exclusion - FMN B],113
16,AAAAUAAACCAGUGAUGUUGGUGUCUGGAUACCAGCGACGAAAGUCGCCCUUGGCAGCUACGGACGUACAAAAUAAGUACGUCCU [MatMod 8 - Jieux - Same State - Theophylline A],487
17,UGUCGAGUGAUGUUCGAUUUGGUGCAUGCAGAGGAUAUAGGGUGGGCUAGAAGGCUGAAAAGUGCUUCGAGUGAUGUUCGAAGUU [Exclusion FMN A GF10],113
18,GAGGUACAGGCGGCCGCCACUAGUGAUGUUAGUGAUAGAAGAUAUAGUAAAUAUCGGCAUUUAGAUAGGACCGGGCCUGGUGGUG [ffdfcmullin],242
19,AAGUGUGUGGCGGCCGCCACUAGUCUCCAGUGAUGUUGGAGAUAUCACGUAAGUGAUAUCCGACAUAGGACCGGGCCAUAUAGAA [Same State - Tryptophan B (Freestyle 21)],318
20,AGGUCCGAGCCUGUAAAGGCUCGGACCUGUUAGGAUAUGACGUUAUUCAGAAGGGAUGGGUGGAGUGAUGUUCCACCCGCAAGGG [#2 Same State - FMN A Attempt #5 (HarryS)],103
21,UAUGGUCCAUCAAGAGUAGUGAUGUUAUAACGAGGACCGGUACGGCCGCCACUCGAGGCCGUAAUACUCGAUCGGAUGCUGAGUG [theeternabot_exclusion_KL_Trp_A_28],819
22,CCAAUCUGUUACGAUACCAGUCAAAGAUAUUUGAUCAAUACCCUCACCGAGUGAUGUUCGGACCCUUGGCAGCGUCUGGGAUAGG [ceevmullin],267
23,CUAUCCCGCCGUGUAUGUAGUAUACGGUGCCGAGGACCGGUACGGCCGCCACUCGAUAAGCUUUGUCGGAGUGAUGUUCCGACCG [Soleesen],181
24,UAAUUUAUGUCUUUAAUAUAAUAAUCAGAUACCAGUGAUUAAUGACACCCUUGGCAGCUGUAUAGAGUGAUGUUCUUAUGCUUAA [JR_ExcTheophyA_Sub010],316
25,GGAGGGAUCUCGGCCGCCACUCAUAAGAAAUGAACCUAAGAAAUAUAGUGAUGUUAUAUAAAGAAGAGGACCGGGAGAAAGGAGG [ExTryptoB.A],171
26,GGGAGUAGUGCGGCCGCCACUGUGAAAGAAGAAGAAUAUAGUGAUGUUAUAUAGGAAUUAAAGAAUAGGACCGGGCAUUAGAUUU [SSTRyptB.Q],198
27,AACUCUCAGACACCUGAGUGAUGUUCAGGCCGAGGACCGGUACGGCCGCCACUCGGGUCUGAGAGAGGUUAUCAAAGAUAGCCAA [Omei KL Tryp A SS A v3],244

# — the supplement of paper PMC9170038
